Two substances from paper PMC4820223 can be followed below.

Assay [1] has as its target UbL-mCherry-FRB-MBP proteasome adaptor.
The target of assay [2] is UbL-mCherry-GAI(1-92) proteasome adaptor (UniProt Q9LQT8).

As for FKBP-GFP-tail target protein, the depletion of the GFP target (GFP fluorescence by flow cytometry) in HEK293 cells after 4 h with 1, 2 or 5 uM rapalog; dimerisation bridged by rapalog in assay [1] was found to be 90%.
In assay [2], GID1-GFP-tail target protein registered a depletion of the GFP target (GFP fluorescence by flow cytometry) in HEK293 cells after 24 h with 10 to 50 uM and higher GA3-AM; dimerisation bridged by gibberellin GA3 of 80%.
